# Data from patent US7838495B2, “Compositions and methods of use of EPB1, and ErbB3 binding protein” (University of Maryland, Baltimore, priority 2007, dated 2010).
# Entries after “also recorded” stand apart in the source; their conditions may differ.
# B1: EBP1: ErbB3 binding protein (SEQ ID NO: 2), AR corepressor, here ectopically expressed in cancer cells by stable transfection of an expression plasmid (protein, listed as Homo sapiens)
# chain: MSGEDEQQEQTIAEDLVVTKYKMGGDIANRVLRSLVEASSSGVSVLSLCEKGDAMIMEETGKIFKKEKEMKKGIAFPTSISVNNCVCHFSPLKSDQDYILKEGDLVKIDLGVHVDGFIANVAHTFVVDVAQGTQVTGRKADVIKAAHLCAEAALRLVKPGNQNTQVTEAWNKVAHSFNCTPIEGMLSHQLKQHVIDGEKTIIQNPTDQQKKDHEKAEFEVHEVYAVDVLVSSGEGKAKDAGQRTTIYKRDPSKQYGLKMKTSRAFFSEVERRFDAMPFTLRAFEDEKKARMGVVECAKHELLQPFNVLYEKEGEFVAQFKFTVLLMPNGPMRITSGPFEPDLYKSEMEVQDAELKALLQSSASRKTQKKKKKKASKTAENATSGETLEENEAGD
# modifications: FLAG tag
# Tested on: C81 cells
# Assay: Growth of C81 EBP1 transfectants (monolayer, soft agar, androgen-depleted media)
# Type: cell-based, human
# Protocol: FIG. 4A-C. EBP1 restoration ameliorates the hormone refractory phenotype A. (Left panel) Growth in monolayer culture. Equal numbers (5×10^4) of vector or EBP1 stably transfected cells were plated at Day 0 in complete media and viable cell numbers determined at the indicated times. Each point represents mean±S.E. of 3 wells. Representative of 3 experiments (Right panel). Colony growth in soft agar. C81 cells stably transfected with either pcDNA or EBP1 were plated in soft agar at the cell densities indicated and colony numbers assessed at Day 10. Each point represents mean±S.E. of 3 dishes. Data is representative of 3 experiments. B. (Left Panel) Response of EBP1 and vector transfected C81 cells to dihydrotestosterone (DHT). EBP1 and vector control C81 transfected cells and early passage LNCaP cells were plated in complete media at 5×10^3 cells/well in 96 well plates for one day. The next day, cells were switched to steroid reduced medium for two days as described in the Materials and Methods. DHT was then added at the indicated concentrations. Cells were refed media every 3 days. Total cell numbers were determined seven days later by MTT assays. Each point represents mean±S.E. of 6 wells. Data is representative of two experiments. (Right Panel) Effect of Bicalutamide on DHT stimulated growth. Cells were plated as described in the Materials and Methods. After 2 days in steroid reduced medium, cells were fed with fresh steroid reduced medium with or without 10 μM bicalutamide (Casodex) in the presence or absence of 10 nM DHT. Total cell numbers were assessed 7 days later by MTT assay. Cells were refed media every 3 days. The data shown are mean±S.E. of six wells. Similar results were found in 2 independent experiments. C. EBP1 expression sensitizes C81 cells to chemotherapeutic drugs. […] Total cell numbers were determined by MTT assays 5 days later. […]
# Western Blot Analysis. […] For soft agar growth assays, increasing concentrations of cells (as indicated) were plated in 35 mm Petri dishes in 0.3% agar in complete media and colonies were counted after 10 days of incubation (21). […]
molecule,measurement,setting,value
B1,decrease of colony growth in soft agar,"C81, highest cell concentration tested",approximately 50%
same,growth rate in complete media,"C81 EBP1 transfectants vs vector control, p<0.05",significantly decreased
same,growth in the absence of androgens relative to vector controls,"C81 EBP1 transfectants, androgen depleted media",reduced to one third; also recorded: reduced by ⅔
